T1: recombinant human IL-13 receptor alpha 2 (hIL-13-Rα2) (human, UniProt Q14627 27-343)
T1 construct: Recombinant soluble antigen coated on ELISA plates or used in Biacore; also called rec hIL-13Rα2; rhIL-13Rα2
T1 sequence (looked up): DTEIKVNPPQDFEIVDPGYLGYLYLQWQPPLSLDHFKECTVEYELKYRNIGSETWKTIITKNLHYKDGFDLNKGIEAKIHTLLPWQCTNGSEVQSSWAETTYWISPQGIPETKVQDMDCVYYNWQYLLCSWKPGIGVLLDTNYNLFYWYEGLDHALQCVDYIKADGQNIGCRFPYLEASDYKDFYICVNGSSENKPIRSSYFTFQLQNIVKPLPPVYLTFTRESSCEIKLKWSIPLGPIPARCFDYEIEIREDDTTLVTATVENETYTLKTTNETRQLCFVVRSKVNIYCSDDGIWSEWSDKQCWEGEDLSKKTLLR

T2: recombinant mouse IL-13-Rα2 (mIL-13-Rα2) (mouse, UniProt O88786 22-334, limits assumed)
T2 construct: also called murine mIL-13Rα2
T2 sequence (looked up): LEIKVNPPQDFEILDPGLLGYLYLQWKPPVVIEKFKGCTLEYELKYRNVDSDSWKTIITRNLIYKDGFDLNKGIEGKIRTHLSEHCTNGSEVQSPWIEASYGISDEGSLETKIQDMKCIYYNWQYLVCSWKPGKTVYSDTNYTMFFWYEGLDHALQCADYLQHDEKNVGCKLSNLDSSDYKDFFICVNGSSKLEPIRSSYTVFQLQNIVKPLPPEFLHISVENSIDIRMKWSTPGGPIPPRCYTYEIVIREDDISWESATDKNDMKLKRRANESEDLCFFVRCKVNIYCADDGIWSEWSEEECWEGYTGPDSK


Key:
[1] = target: T1, recombinant human IL-13 receptor alpha …; test: competition ELISA on plate-coated recombinant hIL-13-Rα2; competitor: constant amount of biotin-ch08, detected with streptavidin-HRP
Experimental: (§1) A competition ELISA was performed to examine whether ch07 and ch08 have distinct binding epitopes. Prior to the competition ELISA experiment, ch07 and ch08 were biotinylated. The EC50 of the biotinylated ch07 (biotin-ch07) and ch08 (biotin-ch08) were determined by direct standard ELISA. For the competition ELISA, recombinant hIL-13-Rα2 was coated onto 96-well plates at 50 ul of 2 μg/mL in PBS overnight at 4° C. The plates were then blocked and washed following a standard ELISA protocol. 3-fold serially diluted ch07 and ch08 (2× final concentration) were mixed with a constant amount of biotin-ch07 (FIG. 2A) or biotin-ch08 (FIG. 2B), respectively and were added to the plate and incubated for 1 hour at room temperature. The amount of biotinylated chimeric antibody bound was detected by HRP conjugated streptavidin at 1:5000 for 1 hour. […] Similar results are obtained when the same set of antibodies were used to compete with biotin-ch08 (FIG. 2B).

[2] = target: T1, recombinant human IL-13 receptor alpha …; test: competition ELISA on coated recombinant hIL-13-Rα2, competitor biotin-ch08
Experimental: A competition ELISA was performed to assess whether hu08 1.0 and hu08 v1.1 compete with ch08 for IL-13-Rα2 binding. Recombinant hIL-13-Rα2 was coated onto 96-well plates at 50 ul of […] in PBS overnight at 4° C. Plates were then blocked and washed following standard ELISA protocol. A 3-fold serially diluted ch08, hu08 1.0 and hu08 v1.1, and negative control ch07 (2× final concentration) were mixed with biotinylated ch08 (2×EC₅₀). 50 μl of the antibody and biotin-ch08 mixture were added to the plate and incubated for 1 hour at room temperature. The amount of biotin-ch08 bound was detected by HRP conjugated streptavidin.

[3] = target: T2, recombinant mouse IL-13-Rα2 (mIL-13-Rα2); test: direct ELISA on coated recombinant mIL-13-Rα2, serially diluted purified ch08
Experimental: (§2) The binding of hu07 and hu08 to mouse IL-13-Rα2 was evaluated by direct ELISA. The identity between human and mouse IL-13-Rα2 at the amino acid level is approximately 64%. Recombinant mIL-13-Rα2 or hIL-13-Rα2 (as positive control) was coated onto a 96-well plate. Purified chimeric ch07 and ch08 were serially diluted and added to the antigen coated plate. The bound antibodies were detected by HRP conjugated goat anti-human IgGFc specific secondary antibody.

[4] = target: T1, recombinant human IL-13 receptor alpha …; test: competition ELISA on plate, competitor biotinylated ch07, purified protein
[5] = target: T1, recombinant human IL-13 receptor alpha …; test: direct ELISA on rhIL-13Rα2, purified protein (given as ED50)
[6] = target: T1, recombinant human IL-13 receptor alpha …; test: SPR Biacore, pH 7.4
Experimental: To assess the binding kinetics of the ch07 and ch08 antibodies, SPR (Surface Plasmon Resonance) experiments were conducted on a Biacore® T100 or T200 instrument using a Biacore® human Fab Capture Kit (GE Healthcare). All data was analyzed using the Biacore® T100 evaluation software version 2.0 with a 1:1 Langmuir binding model.
Kₐ, Kd and KD are shown on Table 5. […] At pH6.0, ch07 and ch08 binding affinity to hIL-13-Rα2 are in the low nM range. Dissociation rates of ch08 and ch07 are very similar. Higher KDs at pH6.0 than pH7.4 are due to a slower association rate.

[7] = target: T2, recombinant mouse IL-13-Rα2 (mIL-13-Rα2); test: direct ELISA on coated recombinant mIL-13-Rα2, serially diluted purified ch07
Experimental: as §2

[8] = target: T1, recombinant human IL-13 receptor alpha …; test: competition ELISA on plate-coated recombinant hIL-13-Rα2; competitor: constant amount of biotin-ch07, detected with streptavidin-HRP
Experimental: as §1

IC50 (read off the curve) [1] [nM] | IC50 [2] [nM] | binding result [3] | IC50 [4] [nM] | EC50 [5] [nM] | fold slower dissociation than ch08 [6] [fold] | binding result [7] | IC50 (read off the curve) [8] [nM] | Binder
~6 | 1.98 | no binding |  |  |  |  |  | chimeric antibody ch08 (antibody, human IgG1, V domains shown, also called ch08Hc + Lc; chimeric antibody 08) VH: EVQLVESGGDLVRPGGSLQLSCAASGFTFSRNGMSWVRQTPDRRLEWVATVSSGGSYIYYADSVKGRFTISRDNARNTLYLQMSSLKSEDTAMYYCARQGTTALATRFFDVWGAGTTVTVSS VL: DIVMTQSHKFISTSVGDRVSITCKASQDVGTAVAWYQQIPGQSPKLLIYSASYRSTGIPDRFTGSGSGTDFSFIISSVQAEDLALYYCQHHYSAPWTFGGGTTLDIK
 |  |  | 2.21 | 0.39 | ~2 | no binding | ~2 | chimeric antibody ch07 (antibody, human IgG1, V domains shown, also called chimeric antibody 07; biotin-ch07 (biotinylated form)) VH: QVQLKESGPGLVAPSQSLSINCTVSGFSLTKYGVHWIRQSPGKGLEWLGVKWAGGSTDYNSALMSRLTISKDNNKSQVFLKMNSLQSDDSAMYYCARDHRDAMDYWGQGTSVTVSS VL: QVVLTQSPAIMSASPGERVTMTCTASLSVSSTYLHWYHQKPGSSPKLWIYSTSNLASGVPARFSGSGSGTSYSLTISSMEAEDAATYYCHQYHRSPLTFGSGTKLELK

— patent publication US20150266962A1 (Pfizer, published 2015)
